Assay results as given in paper PMC3121171 (Forum on immunopathological diseases and therapeutics, 2011).

Biological target: T1, Purified recombinant human GRK2 (G protein-coupled receptor kinase 2) (human, UniProt P25098 1-689)
T1 sequence (looked up): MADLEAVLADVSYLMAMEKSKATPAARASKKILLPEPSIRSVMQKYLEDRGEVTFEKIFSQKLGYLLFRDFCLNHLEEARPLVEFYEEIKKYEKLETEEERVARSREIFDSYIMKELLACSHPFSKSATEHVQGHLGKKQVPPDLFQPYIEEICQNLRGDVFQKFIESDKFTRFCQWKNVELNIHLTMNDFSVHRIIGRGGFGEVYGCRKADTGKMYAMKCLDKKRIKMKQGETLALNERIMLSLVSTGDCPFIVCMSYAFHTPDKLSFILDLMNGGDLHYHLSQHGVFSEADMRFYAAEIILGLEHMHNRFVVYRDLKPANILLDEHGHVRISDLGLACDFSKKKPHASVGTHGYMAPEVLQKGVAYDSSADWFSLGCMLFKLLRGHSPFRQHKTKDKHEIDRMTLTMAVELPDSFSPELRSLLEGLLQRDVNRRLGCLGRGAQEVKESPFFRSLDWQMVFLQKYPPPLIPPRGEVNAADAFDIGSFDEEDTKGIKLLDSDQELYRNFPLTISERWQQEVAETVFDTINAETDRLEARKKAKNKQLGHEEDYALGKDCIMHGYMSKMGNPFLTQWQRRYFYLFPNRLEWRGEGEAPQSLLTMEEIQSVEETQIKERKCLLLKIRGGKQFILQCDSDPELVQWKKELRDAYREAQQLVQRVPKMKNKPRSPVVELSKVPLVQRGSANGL
Assay: pull-down

- binding result: binds
B1: His-tagged human RKIP-1/PEBP-1 (Raf kinase inhibitor protein) (natural protein)
chain: MPVDLSKWSGPLSLQEVDEQPQHPLHVTYAGAAVDELGKVLTPTQVKNRPTSISWDGLDSGKLYTLVLTDPDAPSRKDPKYREWHHFLVVNMKGNDISSGTVLSDYVGSGPPKGTGLHRYVWLVYEQDRPLKCDEPILSNRSGDHRGKFKVASFRKKYELRAPVAGTCYQAEWDDYVPKLYEQLSGK
